Measured values: patent publication US20260250318A1, “COMPOSITIONS AND METHODS FOR CROSSING THE BLOOD BRAIN BARRIER” (VOYAGER THERAPEUTICS, INC., priority 2022, published 2026)
Like-named read-outs stand apart in the source and are kept apart here.

Legend:
[1] = tested on: brain; assay: NGS fold enrichment of synthetic library (passage 3) in BALB/c mice, first cross-species screen; assay type: in vivo; conditions: synthetic library passage 3, intravenous, RNA NGS, brain of BALB/c mice, relative to wild-type AAV9
Summary of the method: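 Fold enrichment versus wild-type AAV9 was derived by NGS of RT-PCR-amplified RNA from nervous tissue, collected e.g. 28 days after IV dosing […]. The library (passage 3) was given to two NHPs aged 2-4 years and to 6-8-week BALB/c and C57Bl/6 mice (n=3 each).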

[2] = tested on: HEK 293T cells transfected with pCMV6 negative control; assay type: cell-based; conditions: for Luciferase Activity (fold change relative to pCMV6 transfected cells): pCMV6 transfected cells (negative control, reference); for Luciferase Activity (RLU): Table 30, pCMV6 transfected cells
Procedure: Briefly, a transduction assay was performed in that HEK 293T cells were transfected via calcium phosphate transfection with a plasmid expressing ALPL, an AAVR positive control, or a pCMV6 negative control (250 ng or 500 ng of plasmid). AAVR is a universal AAV entry factor involved in AAV transduction. […] At 24-hours post-transduction, GFP expression and luciferase activity were measured to quantify and observe AAV cellular transduction. […] The TTM-002, TTM-006, TTM-018, and TTM-019 capsid variants all comprised the SPH motif immediately subsequent to position 455, numbered relative to SEQ ID NO: 138 and a positive residue in one of the next three residues subsequent to the SPH motif.
Three isoforms of ALPL exist, isoform 1 (Alkaline phosphatase, placental-like 2 (ALPPL2), NM_031313, which is incorporated by reference herein), isoform 2 (alkaline phosphatase, placental (ALPP), NM_001632, which is incorporated by reference herein), and isoform 3 (alkaline phosphatase, intestinal (ALPLI), NM_001631, which is incorporated by reference herein), that can also be expressed on cell surfaces via a GPI-anchor. […] The transduction assay described above was repeated with the three isoforms. HEK 293T cells were transfected via calcium phosphate transfection with a plasmid expressing ALPL, isoform 1 of ALPL, isoform 2 of ALPL, isoform 3 of ALPL, an AAVR positive control, or a pCMV6 negative control. At 24 hours post-transfection, the HEK 293T cells expressing the ALPL receptor were transduced with an AAV particle comprising the TTM-001 capsid variant or the TTM-002 capsid variant, expressing a Luc2-GFP payload. At 24-hours post-transduction, luciferase activity (RLU) was measured to quantify AAV cellular transduction.
To determine if deletion of the endoplasmic reticulum (ER) localization signal of ALPL affected transduction of the TTM-001 and TTM-002 capsid variants, HEK 293T cells were transfected via calcium phosphate transfection with a plasmid expressing ALPL, ALP with a deletion of the ER localization signal (ALPL transcript variant 2 that lacks the ER signal (NM_001127501, which is incorporated by reference herein)), or a pCMV6 negative control. At 24 hours post-transfection, the HEK 293T cells expressing the ALPL receptor were transduced with an AAV particle comprising the TTM-001 capsid variant, the TTM-002 capsid variant, or an AAV9 capsid control, expressing a GFP payload. At 24-hours post-transduction, luciferase activity (RLU) was measured to quantify AAV cellular transduction. Data was normalized to fold change in luciferase activity (RLU) compared to the pCMV6 control.
To determine if the TTM-001 and TTM-002 capsid variants could bind to both the human ALPL protein (NM_000478.6, which is incorporated by reference herein) and the mouse ALPL ortholog (NM_001287172.1, which is incorporated by reference herein), HEK 293T cells were transfected via calcium phosphate transfection with a plasmid expressing human ALPL, the murine ortholog of ALPL, or a pCMV6 negative control. At 24 hours post-transfection, the HEK 293T cells expressing the ALPL receptor were transduced with an AAV particle comprising the TTM-001 capsid variant, the TTM-002 capsid variant, or an AAV9 control capsid protein, expressing a Luc2-GFP payload. At 24-hours post-transduction, luciferase activity (RLU) was measured to quantify AAV cellular transduction.
AAV entry factor involved in AAV transduction), or a pCMV6 negative control.

[3] = molecular target: T1, isoform 1 (Alkaline phosphatase, placental-like 2 (ALPPL2)) (Homo sapiens, UniProt P10696); assay: Transduction assay in HEK 293T cells expressing isoform 1; assay type: cell-based; conditions: for Luciferase Activity (RLU): Table 30, Isoform 1 transfected cells; for increase in transduction in cells expressing isoform 1: luciferase activity (RLU)
T1 construct: expressed in transfected cells; host or cells: HEK 293T
Source text: Three isoforms of ALPL exist, isoform 1 (Alkaline phosphatase, placental-like 2 (ALPPL2), NM_031313, which is incorporated by reference herein), isoform 2 (alkaline phosphatase, placental (ALPP), NM_001632, which is incorporated by reference herein), and isoform 3 (alkaline phosphatase, intestinal (ALPLI), NM_001631, which is incorporated by reference herein), that can also be expressed on cell surfaces via a GPI-anchor. Isoform 1 is 56.25% identical and 72.54% similar (gaps: 4.17%) to ALPL, isoform 2 is 54.96% identical and 71.37% similar (gaps: 2.29%) to ALPL, and isoform 3 is 55.98% identical and 72.11% similar (gaps: 3.04%) to ALPL. The transduction assay described above was repeated with the three isoforms. HEK 293T cells were transfected via calcium phosphate transfection with a plasmid expressing ALPL, isoform 1 of ALPL, isoform 2 of ALPL, isoform 3 of ALPL, an AAVR positive control, or a pCMV6 negative control. […] At 24-hours post-transduction, luciferase activity (RLU) was measured to quantify AAV cellular transduction.

[4] = tested on: HEK 293T cells transfected with pCMV6 negative control; assay: Binding and internalization assay in HEK 293T cells transfected with pCMV6 negative control (viral genomes); assay type: cell-based; conditions: pCMV6 transfected cells (negative control, reference)
Procedure: Binding and internalization of AAV capsid variants comprising the TTM-001 capsid variant, the TTM-002 capsid variant, or the AAV9 control capsid was also investigated in cells engineered to express ALPL. HEK 293T cells were transfected via calcium phosphate transfection with a plasmid expressing ALPL, an AAVR positive control, or a pCMV6 negative control. At 24 hours post-transfection, the HEK 293T cells expressing the ALPL receptor were incubated with an AAV particle comprising the TTM-001 capsid variant, the TTM-002 capsid variant, or an AAV9 control capsid protein, expressing a GFP payload. At 2 or 3-hours post-incubation, cells were washed to remove unbound AAV particles and DNA was extracted to quantify viral genomes.

[5] = Table 33, Cells transfected with pCMV6 (reference)
[6] = Table 34, Cells transfected with pCMV6 (reference)

T1 sequence (P10696 20-503): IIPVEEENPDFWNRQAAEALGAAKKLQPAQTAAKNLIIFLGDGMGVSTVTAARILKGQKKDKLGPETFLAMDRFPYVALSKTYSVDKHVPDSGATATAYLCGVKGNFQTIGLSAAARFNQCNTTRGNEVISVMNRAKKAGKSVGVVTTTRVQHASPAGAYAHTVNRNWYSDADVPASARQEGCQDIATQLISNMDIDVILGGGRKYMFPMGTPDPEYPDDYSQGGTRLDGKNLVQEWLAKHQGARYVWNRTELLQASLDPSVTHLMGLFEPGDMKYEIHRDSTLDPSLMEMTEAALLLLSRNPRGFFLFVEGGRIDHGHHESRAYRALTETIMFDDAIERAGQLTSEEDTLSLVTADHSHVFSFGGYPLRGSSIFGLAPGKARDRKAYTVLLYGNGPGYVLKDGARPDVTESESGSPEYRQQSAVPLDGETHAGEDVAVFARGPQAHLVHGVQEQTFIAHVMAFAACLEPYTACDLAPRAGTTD

| Molecule | Fold enrichment over AAV9 in the brain of Mice (BALB/c) [1] [fold] | Luciferase Activity (fold change relative to pCMV6 transfected cells) ([2]; Table 27) [fold] | Luciferase Activity (RLU) [2] | Fold change in luciferase activity relative to the pCMV6 control cells [2, 5] [fold] | Fold change in luciferase activity relative to the pCMV6 control cells [2, 6] [fold] | Luciferase Activity (RLU) [3] | increase in transduction in cells expressing isoform 1 [3] | Fold change in viral gene expression (2^-ΔΔCT) relative to pCMV6 transfected cells [4] [fold] | Luciferase Activity (fold change relative to pCMV6 transfected cells) ([2]; Table 28) [fold] | Fold change in luciferase activity relative to the pCMV6 control cells ([2]; Table 35, Receptor pCMV6 (reference)) [fold] |
| --- | --- | --- | --- | --- | --- | --- | --- | --- | --- | --- |
| TTM-001: AAV9 capsid variant comprising SPHSKA (SEQ ID NO: 941) in loop IV (protein) chain 1: MAADGYLPDWLEDNLSEGIREWWALKPGAPQPKANQQHQDNARGLVLPGYKYLGPGNGLDKGEPVNAADAAALEHDKAYDQQLKAGDNPYLKYNHADAEFQERLKEDTSFGGNLGRAVFQAKKRLLEPLGLVEEAAKTAPGKKRPVEQSPQEPDSSAGIGKSGAQPAKKRLNFGQTGDTESVPDPQPIGEPPAAPSGVGSLTMASGGGAPVADNNEGADGVGSSSGNWHCDSQWLGDRVITTSTRTWALPTYNNHLYKQISNSTSGGSSNDNAYFGYSTPWGYFDFNRFHCHFSPRDWQRLINNNWGFRPKRLNFKLFNIQVKEVTDNNGVKTIANNLTSTVQVFTDSDYQLPYVLGSAHEGCLPPFPADVFMIPQYGYLTLNDGSQAVGRSSFYCLEYFPSQMLRTGNNFQFSYEFENVPFHSSYAHSQSLDRLMNPLIDQYLYYLSKTINGSGSPHSKAQNQQTLKFSVAGPSNMAVQGRNYIPGPSYRQQRVSTTVTQNNNSEFAWPGASSWALNGRNSLMNPGPAMASHKEGEDRFFPLSGSLIFGKQGTGRDNVDADKVMITNEEEIKTTNPVATESYGQVATNHQSAQAQAQTGWVQNQGILPGMVWQDRDVYLQGPIWAKIPHTDGNFHPSPLMGGFGMKHPPPQILIKNTPVPADPPTAFNKDKLNSFITQYSTGQVSVEIEWELQKENSKRWNPEIQYTSNYYKSNNVEFAVNTEGVYSEPRPIGTRYLTRNL chain 2: GSGSPHSKAQNQQT | 41.304 | 1 | 5,212 RLU | 1 | 1 | 4,072 RLU | did not occur | 1 |  |  |
| TTM-002: AAV9 capsid variant comprising HDSPHK (SEQ ID NO: 2) in loop IV (protein) chain 1: MAADGYLPDWLEDNLSEGIREWWALKPGAPQPKANQQHQDNARGLVLPGYKYLGPGNGLDKGEPVNAADAAALEHDKAYDQQLKAGDNPYLKYNHADAEFQERLKEDTSFGGNLGRAVFQAKKRLLEPLGLVEEAAKTAPGKKRPVEQSPQEPDSSAGIGKSGAQPAKKRLNFGQTGDTESVPDPQPIGEPPAAPSGVGSLTMASGGGAPVADNNEGADGVGSSSGNWHCDSQWLGDRVITTSTRTWALPTYNNHLYKQISNSTSGGSSNDNAYFGYSTPWGYFDFNRFHCHFSPRDWQRLINNNWGFRPKRLNFKLFNIQVKEVTDNNGVKTIANNLTSTVQVFTDSDYQLPYVLGSAHEGCLPPFPADVFMIPQYGYLTLNDGSQAVGRSSFYCLEYFPSQMLRTGNNFQFSYEFENVPFHSSYAHSQSLDRLMNPLIDQYLYYLSKTINGHDSPHKSGQNQQTLKFSVAGPSNMAVQGRNYIPGPSYRQQRVSTTVTQNNNSEFAWPGASSWALNGRNSLMNPGPAMASHKEGEDRFFPLSGSLIFGKQGTGRDNVDADKVMITNEEEIKTTNPVATESYGQVATNHQSAQAQAQTGWVQNQGILPGMVWQDRDVYLQGPIWAKIPHTDGNFHPSPLMGGFGMKHPPPQILIKNTPVPADPPTAFNKDKLNSFITQYSTGQVSVEIEWELQKENSKRWNPEIQYTSNYYKSNNVEFAVNTEGVYSEPRPIGTRYLTRNL chain 2: GHDSPHKSGQNQQT | 49.760 | 1 | 2,894 RLU | 1 | 1 | 1,114 RLU | did not occur | 1 | 1 | 1.0 |
